Assays:
[1] = biological target: T1, cynomolgus monkey GPVI extracellular domain fused at its C-terminus to human IgG1 Fc (GPVI-Fc) (cynomolgus monkey; human); test: Competition ELISA (MSD): cynomolgus GPVI-Fc preincubated with Fab, then on coated VitroCol (competitor)
T1 construct: also called cyGPVI-2; cyGPVI
Procedure: 1 or 10 μg/ml of recombinant GPVI collagen substrate (crosslinked collagen-related peptide (CRP-XL (Anaspec, Inc.), rat-tail collagen (Enzo Life Sciences) or VitroCol (Advanced BioMatrix, Inc.) was coated on a MSD-plate over night at 4° C., washed with PBST, blocked for 1 h at RT with PBS supplemented with 0.05% Tween-20 and 3% skim milk powder, and subsequently washed again with PBST. Purified recombinant GPVI antigens (human, cynomolgus monkey or mouse GPVI as prepared in Example 1) diluted in PBS and varying concentrations of Fab (comprising a modified heavy chain constant region) diluted in PBS (final concentration range 200-0.3 μg/ml) were incubated in a polypropylene plate for 30 min at RT. Fab/GPVI-Fc mixture was added to coated collagen substrate for 1 h at RT. After washing with PBST, bound GPVI form different species was detected using an ECL-conjugated detection antibody directed against human Fc (Jackson Immuno Research) for 1 h at RT. MSD read buffer (Meso Scale Discovery) was added prior to readout in a Sector Imager6000 (Meso Scale Discovery).

[2] = biological target: T2, human GPVI (full-length) expressed on stably transfected rat basophilic RBL-2H3 cells (human, UniProt Q9HCN6 21-339); test: cell-based or functional assay
T2 sequence (looked up): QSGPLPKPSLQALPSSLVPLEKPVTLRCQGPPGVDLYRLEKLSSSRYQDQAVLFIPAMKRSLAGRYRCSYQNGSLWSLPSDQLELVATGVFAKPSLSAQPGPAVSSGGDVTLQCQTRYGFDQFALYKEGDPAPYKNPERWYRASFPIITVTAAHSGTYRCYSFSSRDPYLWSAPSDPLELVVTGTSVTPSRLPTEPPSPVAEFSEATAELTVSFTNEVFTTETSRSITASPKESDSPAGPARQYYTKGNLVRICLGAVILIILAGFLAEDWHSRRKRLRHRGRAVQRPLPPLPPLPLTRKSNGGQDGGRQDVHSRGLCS

[3] = biological target: T3, human GPVI-1A extracellular domain fused at its C-terminus to human IgG1 Fc (GPVI-Fc) (human); test: Solution equilibrium titration (SET), Fab with GPVI-Fc
T3 construct: also called hGPVI-1a; hGPVI
Procedure: (§1) Affinity determination in solution was basically performed as described in the literature (Friguet et al. 1985). In order to improve the sensitivity and accuracy of the SET method, it was transferred from classical ELISA to ECL-based technology (Haenel et al. 2005).
(§2) 1 mg/mL goat-anti-human (Fab)2 fragment specific antibodies (Dianova) were labeled with MSD Sulfo TAG™ NHS-Ester (Meso Scale Discovery | Gaithersburg | Md. | USA) according to the manufacturer's instructions. The experiments were carried out in polypropylene microtiter plates and PBS (GIBCO 14190 | pH 7.0-7.2) containing 0.5% BSA and 0.02% Tween20 as assay buffer. Serial dilutions of unlabeled human GPVI-Fc (SEQ ID NO: 4), cynomolgus monkey GPVI-Fc (SEQ ID NO: 7), and mouse GPVI-Fc (SEQ ID NO: 8) (as prepared in Example 1) were prepared, starting with a concentration at least 10 times higher than the expected KD. Wells without antigen were used to determine Bmax values; wells containing only assay buffer were used to determine background. After addition of appropriate amount of binder (antibody concentration similar to or below the expected KD, 60 μL final volume), the mixture was incubated over night at RT. MSD plates were coated with antigen or biotinylated antigen on standard and streptavidin plates, respectively (30 μL per well). After washing the plate with PBS with 0.05% Tween 20, the equilibrated samples were transferred to the plates and incubated for 20 min. Following incubation, 30 μL per well of the MSD-Sulfo-tag labeled detection antibody (anti-human (Fab)2 | final dilution typically 1:2,000) was added to the washed MSD plate and incubated for 30 min at RT on an Eppendorf shaker (700 rpm). After washing the MSD plate and adding 30 μL/well MSD Read Buffer T with surfactant, electrochemiluminescence signals were detected using a Sector Imager 6000 (Meso Scale Discovery | Gaithersburg | Md. | USA). The data was evaluated with XLfit (IDBS) software applying customized fitting models. For KD determination of Fabs the fit model according to (Haenel et al. 2005), modified according to (Abraham et al.) was used.

[4] = biological target: T4, mouse GPVI extracellular domain fused at its C-terminus to human IgG1 Fc (GPVI-Fc) (mouse; human); test: as above
T4 construct: also called mGPVI; mouse GPVI-Fc
Procedure: as §1, §2

[5] = biological target: T1, cynomolgus monkey GPVI extracellular …; test: as above
Procedure: as §1, §2

[6] = biological target: T5, rat GPVI extracellular domain fused at its C-terminus to human IgG1 Fc (GPVI-Fc) (rat; human); test: ELISA on coated rat GPVI-Fc
T5 construct: also called rGPVI

[7] = biological target: T6, mouse GPVI (full-length) expressed on stably transfected CHO cells (mouse, UniProt P0C191 22-313); test: Cell ELISA (MSD) on CHO cells expressing mouse GPVI
T6 sequence: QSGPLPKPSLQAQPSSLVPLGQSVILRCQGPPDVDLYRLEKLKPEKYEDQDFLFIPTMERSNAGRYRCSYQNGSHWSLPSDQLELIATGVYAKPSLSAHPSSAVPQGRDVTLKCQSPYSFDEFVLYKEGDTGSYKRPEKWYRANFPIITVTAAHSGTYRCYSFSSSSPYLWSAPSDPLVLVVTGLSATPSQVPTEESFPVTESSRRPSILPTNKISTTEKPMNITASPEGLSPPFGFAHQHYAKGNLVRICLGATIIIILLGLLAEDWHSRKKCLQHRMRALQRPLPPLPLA

[8] = biological target: T7, mouse GPVI on the cell surface of mouse platelets (mouse, UniProt P0C191 22-313); test: FACS on mouse platelets
T7 construct: whole, on cells; also called GPVI on murine platelets
T7 sequence (looked up): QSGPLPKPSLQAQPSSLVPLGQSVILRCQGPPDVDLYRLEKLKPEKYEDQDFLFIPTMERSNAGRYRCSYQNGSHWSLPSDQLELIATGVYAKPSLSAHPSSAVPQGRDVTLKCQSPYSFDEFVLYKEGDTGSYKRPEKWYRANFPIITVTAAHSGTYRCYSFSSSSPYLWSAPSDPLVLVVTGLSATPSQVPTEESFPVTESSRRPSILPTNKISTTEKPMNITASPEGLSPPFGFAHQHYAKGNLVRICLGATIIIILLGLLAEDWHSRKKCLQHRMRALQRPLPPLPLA

[9] = biological target: T4, mouse GPVI extracellular domain fused …; test: ELISA on coated mouse GPVI-Fc

B1: Fab #2 comprising a modified heavy chain constant region (Fab, V domains shown)
VH: QVQLVESGGGLVKPGGSLRLSCAASGFSFSDHYMSWIRQAPGKGLEWVSSVGSEGKFIDYAASVKGRFTISRDNAKNSLYLQMNSLRAEDTAVYYCARHYREFRWHYYYFDYWGQGTLVTVSS
VL: QSVLTQPPSVSGAPGQRVTISCTGSSSNIGAGYDVHWYQQLPGTAPKLLIYGNSNRPSGVPDRFSGSKSGTSASLAITGLQAEDEADYYCQSHDLGAHVWVFGGGTKLTVLG
notes: Human Fab from the Ylanthia library; produced in HKB11 cells; also called Fab #2 mod; HC
- IC50 [1]: 4300 pM
- Max. inhibition at 200 nM Fab [%] [1]: 100%
- Cell adhesion assay IC50 [nM], coated CRP-XL [2]: 1.59 nM
- Cell adhesion assay IC50 [nM], coated VitroCol [2]: 0.89 nM
- Cell adhesion assay Max. inhibition at 200 nM Fab [%], coated CRP-XL [2]: 100%
- Cell adhesion assay Max. inhibition at 200 nM Fab [%], coated VitroCol [2]: 93%
- Kd [3]: 27 pM
- Kd [4]: 7100 pM
- Kd [5]: 24 pM

B2: Fab #3 comprising a modified heavy chain constant region (Fab, V domains shown)
VH: QVQLVESGGGLVKPGGSLRLSCAASGFSFGDYYVSWIRQAPGKGLEWVSAIGGSGSAVQYAESVKGRFTISRDNAKNSLYLQMNSLRAEDTAVYYCARHYREFRWHYYYFDYWGQGTLVTVSS
VL: QSVLTQPPSVSGAPGQRVTISCTGSSSNIGAGYDVHWYQQLPGTAPKLLIYGNSNRPSGVPDRFSGSKSGTSASLAITGLQAEDEADYYCQSHDLGAHVWVFGGGTKLTVLG
notes: Human Fab from the Ylanthia library; produced in HKB11 cells; also called Fab #3 mod; HC
- IC50 [1]: 4700 pM
- Max. inhibition at 200 nM Fab [%] [1]: 100%
- Cell adhesion assay IC50 [nM], coated CRP-XL [2]: 1.81 nM
- Cell adhesion assay IC50 [nM], coated VitroCol [2]: 0.84 nM
- Cell adhesion assay Max. inhibition at 200 nM Fab [%], coated CRP-XL [2]: 100%
- Cell adhesion assay Max. inhibition at 200 nM Fab [%], coated VitroCol [2]: 91%
- Kd [3]: 62 pM
- Kd [4]: 600 pM
- Kd [5]: 68 pM

B3: Fab #4 comprising a modified heavy chain constant region (Fab, V domains shown)
VH: QVQLVQSGAEVKKPGASVKVSCKASGGAFTSSYMHWVRQAPGQGLEWMGIIEPTGASTLYAQRFQGRVTMTRDTSTSTVYMELSSLRSEDTAVYYCARTGIALPLGFDLWGQGTLVTVSS
VL: QSVLTQPPSVSAAPGQKVTISCSGSSSNIGNNYVSWYQQLPGTAPKLLIYDNNKRPSGIPDRFSGSKSGTSATLGITGLQTEDEADYYCAAWSTRFRWVFGGGTKLTVLG
notes: Human Fab from the Ylanthia library; produced in HKB11 cells; also called Fab #4 mod; HC
- IC50 [1]: 8100 pM
- Max. inhibition at 200 nM Fab [%] [1]: 91%
- Cell adhesion assay IC50 [nM], coated VitroCol [2]: 0.57 nM
- Cell adhesion assay Max. inhibition at 200 nM Fab [%], coated VitroCol [2]: 59%
- Kd [3]: 22 pM
- Kd [4]: 290 pM
- Kd [5]: 17 pM

B4: Reference Control Antibody RefFab #1 (humanized GPVI antibody of WO2011073954A2, SANOFI) (Fab, V domains shown)
VH: EVQLLESGPGLVAPSGSLSITCTVSGFSLTGYGVNWVRQPPGKGLEWLGMIWGDGSTDYQSTLKSRLSISKDNSKSQVFLKMNSLRTDDTARYYCARDLPMDYWGLGTSVTVSS
VL: DIQMTQSPSSLSASVGGRVTITCKASQDINKYIAWYQHKPGKGPSLLIHYTSTLQPGVPSRFSGSGSGRDYSFSISNLQPEDIATYYCLQYANLLTFGGGTKLEIKR
notes: Cloned into mammalian Fab expression vectors; a glycine-serine linker (G4S)2 was added to the C-terminus of the Fab heavy chain
- binding result [6]: no binding
- IC50 [1]: 5500 pM
- Max. inhibition at 200 nM Fab [%] [1]: 100%
- Cell adhesion assay IC50 [nM], coated CRP-XL [2]: 2.69 nM
- Cell adhesion assay IC50 [nM], coated VitroCol [2]: 1.17 nM
- Cell adhesion assay Max. inhibition at 200 nM Fab [%], coated CRP-XL [2]: 100%
- Cell adhesion assay Max. inhibition at 200 nM Fab [%], coated VitroCol [2]: 92%
- binding result [7]: no binding
- binding result [8]: no binding
- binding result [9]: no binding
- Kd [3]: 54 pM
- Kd [5]: 36 pM

B5: Fab #1 comprising a modified heavy chain constant region (Fab, V domains shown)
VH: QVQLVQSGAEVKKPGASVKVSCKASGYTFTSHYMHWVRQAPGQGLEWMGLIEPSEGETEYAQRFQGRVTMTRDTSTSTVYMELSSLRSEDTAVYYCARDSSRSYPLGFDIWGQGTLVTVSS
VL: QSVLTQPPSVSAAPGQKVTISCSGSSSNIGNNYVSWYQQLPGTAPKLLIYDNNKRPSGIPDRFSGSKSGTSATLGITGLQTEDEADYYCAAWDFRSSRWVFGGGTKLTVLG
notes: Human Fab from the Ylanthia library; produced in HKB11 cells; also called Fab #1 mod; HC
- IC50 [1]: 9700 pM
- Max. inhibition at 200 nM Fab [%] [1]: 84%
- Cell adhesion assay IC50 [nM], coated VitroCol [2]: 0.58 nM
- Cell adhesion assay Max. inhibition at 200 nM Fab [%], coated VitroCol [2]: 55%
- Kd [3]: 68 pM
- Kd [4]: 28000 pM
- Kd [5]: 75 pM
